Measured values reported in the DeepSol protein solubility set.

Assay: soluble on expression in E. coli; label from the status in PepcDB or PDB records

Sequence | soluble on expression in E. coli
RAQRKMSAQSLPAATPPTQKPPRIIRPRPPSRSRAAQSPGPPHNGSSPQELPRNSNDAPTPMCTPIFWEPPAASLKPPALLPPSASRASLDSQTSPDSPSSTPTPSPVSRRSASPEPAPRSPVPPPKPSGSPCTPLLPMAGVLAQNGSASAPGTVRRLAGRFEGGAEGRAQDADAPEPGLQARADVNGEREAPLTGSGSQENGAPDAGLACPPCCPCVCHTTRPGLELRWVPVGGYEEVPRVPRRASPLRTSRSRPHPPSIGHPAVVLTSYRSTAERKLLPLLKPPKPTRVRQDATIFGDPPQPDLDLLSEDGIQTGDSPDEAPQNTPPATVEGREEEGLEVLKEQNWELPLQDEPLYQTYRAAVLSEELWGVGEDGSPSPANAGDAPTFPRPPGPRNTLWQELPAVQASGLLDTLSPQERRMQESLFEVVTSEASYLRSLRLLTDTFVLSQALRDTLTPRDHHTLFSNVQRVQGVSERFLATLLSRVRSSPHISDLCDVVHAHAVGPFSVYVDYVRNQQYQEETYSRLMDTNVRFSAELRRLQSLPKCERLPLPSFLLLPFQRITRLRMLLQNILRQTEEGSSRQENAQKALGAVSKIIERCSAEVGRMKQTEELIRLTQRLRFHKVKALPLVSWSRRLEFQGELTELGCRRGGVLFASRPRFTPLCLLLFSDLLLITQPKSGQRLQVLDYAHRSLVQAQQVPDPSGPPTFRLSLLSNHQGRPTHRLLQASSLSDMQRWLGAFPTPGPLPCSPDTIYEDCDCSQELCSESSAPAKTEGRSLESRAAPKHLHKTPEGWLKGLPGAFPAQLVCEVTGEHERRRHLRQNQRLLEAVGPSSGTPNAPPP | soluble
RELHPVAPLLDNLTSALNKVYQRKGVNISLDISPEISFVGEQNDFVEVMGNVLDNACKYCLEFVEISARQTDEHLYIVVEDDGPGIPLSKREVIFDRGQRVDTLRPGQGVGLAVAREITEQYEGKIVAGESMLGGARMEVIFGRQHSAPKDE | soluble
RFEPSFLDKLFDDEPHVPAPAAMRQLSLEELKNTVARDVEAILNTRIALTEEDLAALPECQRSVLTYGLNDFAGLSLASHYDRTFICKSIQQAIARHEPRLQQVQVTFELNEQSTNALYFAIQALLVVHPAEEPVTFDAMLQPS | not soluble
RGKDITVWFQRLLDRMTDFFSSLSGRRKVCSKPRFRVRRTTNPAAKKSGTDPKIRETKTSIDEILDKIRISGYASLTAEEKRHLFDQSKRL | not soluble
RGKGKDIVMNPLSFGEFVKVARPDIYSKLPRIKRITKVKECSKLRPWREELYDLFILYLKSGGFPRAVKDILEGESIAELHEPTWNSIQKFYGPL | not soluble
RGRLRIFFGFAAGVGKTYGMLTEAHELLMMGKHVVVGYIEPHDRPDTNRLLEGLPQIPPKNIFYKQMVLTEPDIDQIIQQKPEIVLIDELAHSNAEGSRNRKRYQDIDELLNAGIDVFTTVNVQHIESLNDIVEEVTGIEVKETVPDTFLRQATIRVIDVEPDELIERLEQGKIYANENAKRALKNFFIPQKLDQLRGLAIQRASDHINRISGKTIG | not soluble
RGSHMCDAFVGTWKLVSSENFDDYMKEVGVGFATRKVAGMAKPNMIISVNGDVITIKSESTFKNTEISFILGQEFDEVTADDRKVKSTITLDGGVLVHVQKWDGKSTTIKRKREDDKLVVECVMKGVTSTRVYERA | soluble
RHYPEVKKLVLLSTAVNAMEWPQIIENSKQVITEAKEVTLKNSPMFKRYQKKVTETPWTSTLQFKKMVALAKPVFEHIEIPTFIAQGSADPIVPAEKSVNFLMESIPGPKELFILEGSKHVICQDEQADKLFAAVLTFLQK | not soluble
RILYRHSNAMQHEYNQMMQSIDERKQYQVGKIKMGTGDAWWPLFVKQALNEHLTKQPSASTHVEFGNHLGLMDSLINEQIEFFIGHEIVGLSSKCDVTFIPLFQTVDAYFVSSNHPLLGKTVTEEMLHEYPALSVTYDAKKFAHVIDNPIPKQNERERQQLDDRPTYEVDSLLASIDVLKESVAVMSYTRHLQSYLESFGLRCLTMENEPNPGTVGIYRHRRETSESHLDLIAGITQRAKLLN | not soluble
RKPEEEPQPIDDSSMQFLLAAKDAVSGGIKQNPDFSAQDLAEKMCMSPSQLNRKLTSVVGCSTIGYIQQIKIKLACKLLADESKNISDISIEAGFSDPAYFSRTFKRYMNCSPSQYRQKLLAMPGSDKETV | not soluble
RLKALRKEQGKALKKDKKLAEPKARVYVLDFDGDIKASATESMRHEITALLTLATDKDEVVLRLESGGGMVHSYGLASSQLARIRQAGIPLTVCIDKVAASGGYMMACIGNKIISAPFAILGSIGVVAQLPNVNRLLKKHDIDFEVLTAGEYKRTLTVFGENTEKGREKFQQDLDITHDLFKNFVASYRPQLSIDEVATGEVWLGMAAVDKLLVDELKTSDE | not soluble
RQEQTETLAEERAETVANLEELNALILQRMRTGILVVDSRQAILLANQAALGLLRQDDVQGASLGRHSPMLMHCMKQWRLNPSLRPPTLKVVPDGPTVQPSFISLNREDDQHVLIFLEDISQIAQQAQQMKLAGLGRLTAGIAHEIRNPLGAISHAAQLLQESEELDAPDRRLTQIIQDQSKRMNLVIENVLQLSRRRQAEPQQLDLKEWLQRFVDEYPGRLRNDSQLHLQLGAGDIQTRMDPHQLNQVLSNLVQNGLRYSAQAHGRGQVWLSLARDPESDLPVLEVIDDGPGVPADKLNNLFEPFFTTESKGTGLGLYLSRELCESNQARIDYRNREEGGGCFRITFA | not soluble
RQLTVLERVAPTITGNLENQTTSIGESIEVSCTASGNPPPQIMWFKDNETLVEDSGIVLKDGNRNLTIRRVRKEDEGLYTCQACSVLGCAKVEAFFIIEGAQEKTNLE | soluble
RRNDDAGMIIPSFGISYDDQYDLIDEIERISKLTDVDEIKKSMDAIDGKKMDFDLGGVVAVGIPNKFLSATVYGKLYTESFVQPNVDTSGADPLTDSYVQGVSIGVAEAGVSLAKYTNFMNQHLSFGITPKLQRIYTYSYATSFKNFDTKDLREHETAETMFNLDAGALWFFGPYRLGISAKNLIGRDVKTKSFQYNTDTIQSYEYSMRPVYTVGAGIVADYFTMSVDYDLNEEKRFSSFDDNTQMIRAGFEIDILRQMALRGGYMKNLARSNDEGTITAGIGLSPLNLIELDISARYTNENAMGASINFLATY | not soluble
RRTAEAERDRLNELLQIFTAAVPGVVYAKDLEGRMLVANRGTAELVGKPPEFFIGKTDLEFLDDEQQARVLMETDQRIMQSNVSEQIEEKVNLADGSAAIWLSTKAPLLDRNGDVIGLIGSSIDVT | not soluble
RRTTNDGFHLLKAGGSCFALISGTANQVKCYRFRVKKNHRHRYENCTTTWFTVADNGAERQGQAQILITFGSPSQRQDFLKHVPLPPGMNISGFTASLDF | soluble
RSFGLRASLVDALRKGKIQVAYQPLRVLDSGRMAGVEALARWTYDEVGPISPVTFLGWVEAMGLRQPFTRYIVQAALDGMKTRMAGDAPFYLSINVFPEDLEDESFLDFLTQSVRERELSPGSVVLEVTESAVFSTASPSVLFRRFRAAGFRIFLDDFGVGYSNLGNIIRWEVDGIKLDRIFMQSLGDFDSAAPVLDQVIEMARQLDLHLVIEGIEVRSQADYIFKRAPHAVGQGWLFGRPGPACALPAA | not soluble
RTDTIMVVNVGNHAKKIKMVSFMRDTLINIPGYSYNDNSYDLKLNSAFNLGEQEDHHGAEYVRRALKHNFDIDIKYYVMVDFETFAEAIDTLFPNGVKIDAKFATVGGVAVDSVEVPDDLRMKNGVVPNQTIEVGEQRMDGRTLLNYARFRKDDEGDFGRTVRQQQVMSAVMSQIKD | not soluble
RTFRHYDAYRSQSGTTGTDAARFILSQSGINDVGVQKISGDLTDNYNGQTKILSLSEATADSTSVAAIGVAAHECGHAVQDHVNYWPMRLRTALVP | not soluble
SAAATEHNRPSSGDRNLERRCSPNLSREVLYEIFRSLHTLVGQLDLRDDVVKITIDWNKLQSLSAFQPALLFSALEQHILYLQPFLAKLQSPIKEENTTAVEEIGRTEMGNKNEVNDKFSIGDLQEEEKHKESDLRDVKKTQIHFDPEVVQIKAGKAEIDRRISAFIERKQAEINENNVREFCNVIDCNQENSCARTDAIFTPYPGFKSHVKVSRVVYTYGPQTRPEGIPGSGHKPNSMLRDCGNQAVEERLQNIEAHLRLQTGGPVPRDIYQRIKKLEDKILELEGISPEYFQSVSFSGKRRKVQPPQQNYSLAELDEKISALKQALLRKSREAESMATHHLP | not soluble
SADAFSLQRVLETFRSSLSENKEVYIKYYIAGWQELVSFMNSLGNVFSFISKDVVSKIQILENFLSGENGSNYVTIQSMVKYELENDLVDLTKRGSHPESGCRTLLRLHRALRWLELFLERLRTSTEDSKTSVMCSDAYNESLANHHPWLIRKAVGVAFCALPGRETFFDVMNAGDHTQVVALLGESLPLIAEVYQITEDLYAKNNLLELP | soluble
SAEDELVEIVPNMNMEQLNFISGDFGRFIPQIPTKVPLWLAVALKRRGKCTFRPPGWMSVDNLTQILEAERESQSTFQALPFSYVEIARLLFDHARDDIPDMYMVRSLVEDIRDVRLHKLETNLGSFQGTSAVKISNVSAMEVNIVRPFVIRALEAFYKHDKPEADVDRDTRSSRQQRETNNEPRRPLRQR | soluble
SAFQKAASLLGAPIGHDFCVISLSDLMTPWDRIEKRIHAAATADFVTAVYNPKSEGRYWQLYRLKEIFLKERDPETPVGFVRQAGRKEETVTITTLQEFDPEQVDMFTVVLIGNSQSYHQEG | soluble
SALTCEVCVLTVPVVSNSTPGSLYVVATPIGNLDDMSVRALKVLREVALIAAEDTRHSARLMQHFGISTPLAACHEHNERDEGSRFITRLLAGDDVALISDAGTPLISDPGYHLVRQARAVGVPVVP | not soluble
SANQNFNNSETLGHQGSHVVTLQLRIDGMHCKSCVLNIEENIGQLLGVQSIQVSLENKTAQVKYDPSCTSPVALQRAIEALPPGNFKVSLPDGAEGSGTDHRSSSSHSPGSPPRNQVQGTCSTTLIAIAGMTCASCVHSIEGMISQLEGVQQISVSLAEGTATVLYNPAVISPEELRAAIEDMGFEASVVSESCSTNPLGNH | soluble
SATLKVSDSVPAPSDDAEQLRTAFEGWGTNEDLIISILAHRSAEQRKVIRQAYHETYGEDLLKTLDKELSNDFERAILLWTLEPGERDALLANEATKRWTSSNQVLMEVACTRTSTQLLHARQAYHARYKKSLEEDVAHHTTGDFRKLLVSLVTSYRYEGDEVNMTLAKQEAKLVHEKIKDKHYNDEDVIRILSTRSKAQINATFNRYQDDHGEEILKSLEEGDDDDKFLALLRSTIQCLTRPELYFVDVLRSAINKTGTDEGALTRIVTTRAEIDLKVIGEEYQRRNSIPLEKAITKDTRGDYEKMLVALLGEDDA | soluble
SATPLDNCLRPFPDPMVKVTAETKKISEVSSYVSANNKKNSFWGSGLLYPVALLRCQDCWAGHQTHVLSKEFTSYFSSGAGREAQHQPSAVLGSLIWLRRVYLLRAMVVHGGSQPCQRWLVIRMEVGGHPSFPGHAWLTFHLN | soluble
SDLCQLFVEQLFGFQDPASLHVLINEIPCARKNLISLRRFSLLIAEPQWFTGSIYDNLVLNHRNVPNKIIIEQLKNVGLADKIIQLPEGLRTILYEWQDVFTLVELTKLMLVRALLLQPELIVIDRAFDILNHQEVNEMMELVLSLKNTLLAIVSQRSDFNYLNNRLVISS | not soluble
SDLMTPWPIIEKRIVAAASADFVTAIYNPKSEGRYWQLYRFVEIFMQYRSADTPVGLVRQAGREEEQVTVTTLGEFDPEVVDMFTVVLVGNSQSYCYEGHFITPRGYYPEEEIEAKGI | not soluble
